Source: the supplement of paper PMC9732359
± gives the uncertainty stated by the source.

Test: protein stability index of a GFP-peptide fusion (yeast GPS) (PSI 1-4); higher = more stable; sorted into four equal gates, so the index is relative within each strain
In short: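 Plasmids isolated from each sorting gate were PCR-amplified and Illumina-sequenced, and barcodes assigned the reads to strains. The gates, four of equal size, were set by GFP/Cherry fluorescence ratio on mid-log cultures in leucine-free medium. These cultures were yeast carrying a pooled library of tiled 17-residue yeast protein peptides fused downstream of GFP on a plasmid that also expresses Cherry. The protein stability index is the sum of every gate's read frequency times its gate number.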

Sequence	protein stability index (doa10∆)	protein stability index (pdr5∆)	protein stability index (san1∆)	protein stability index (ubr1∆)
GDFLDFQVHERLAPLIK [ARP7]	3.29 ± 0.16	3.29 ± 0.13	3.42 ± 0.1	3.47 ± 0.098
GDVGKNHITEFPSIPLP [RPC31]	3.21 ± 0.087	3.23 ± 0.087	3.31 ± 0.079	3.22 ± 0.093
GEANKHHWEDLQKRVIE [RPN5]	2.98 ± 0.26	3.4 ± 0.26	2.93 ± 0.18	3.81 ± 0.27
GEDSTKPLGPCDVFWVQ [POP1]	3.12 ± 0.094	2.97 ± 0.082	3.17 ± 0.072	2.8 ± 0.057
GEFETKIAGIEGHLAEI [SRB2]	–	–	–	3.1 ± 0.13
GEKIDSNKPIFLFAPEL [SWI1]	2.62 ± 0.1	2.54 ± 0.21	2.59 ± 0.21	2.91 ± 0.23
GELRSYLKGATGHSQGL [FAS1]	–	–	–	3.87 ± 0.22
GEPEAGNKALEDEEEFS [RPC34]	3.18 ± 0.13	3.26 ± 0.26	–	–
GESEKSSDVDMDDEEWR [RPC53]	3.7 ± 0.22	3.63 ± 0.21	3.35 ± 0.21	3.33 ± 0.18
GEVMKELSEEKYIVKAS [RPT4]	3.25 ± 0.061	3.38 ± 0.072	3.41 ± 0.043	3.3 ± 0.042
GEYSVKLLKGATLYIPK [FAS2]	–	2.87 ± 0.21	2.9 ± 0.12	–
GFGILEDGMIIDVNLNF [RRP40]	3.08 ± 0.089	3.21 ± 0.075	3.19 ± 0.089	3.02 ± 0.076
GFGLVYNSVAEAKKFEP [RPS24A]	3.22 ± 0.1	3.47 ± 0.13	2.87 ± 0.1	2.8 ± 0.14
GFINQKNLKPQEQLKNV [YIL149C/MLP2]	3.09 ± 0.11	2.84 ± 0.081	2.77 ± 0.062	2.9 ± 0.068
GFKWLNKLDEYHGLYTN [LIN1]	1.81 ± 0.056	1.79 ± 0.056	1.88 ± 0.056	1.67 ± 0.068
GFYQIKKIVDSKKLNLK [YMR129W/POM152]	3.11 ± 0.12	2.98 ± 0.092	2.41 ± 0.24	2.62 ± 0.11
GGFTAYGGADYGEATSP [RPO21]	1.79 ± 0.093	1.9 ± 0.069	1.98 ± 0.099	2.01 ± 0.068
GGGWDNVDQTKTQCPNY [RPC11]	3.47 ± 0.13	3.25 ± 0.17	3.07 ± 0.078	3.22 ± 0.09
GGGYFSAAGMTAAIDSV [FAS1]	3.11 ± 0.15	3.23 ± 0.11	3 ± 0.24	3.07 ± 0.15
GGKAGSAAKASQSRSAK [HTA1]	3.17 ± 0.072	3.14 ± 0.071	2.84 ± 0.069	3.19 ± 0.048
GGNSTQNTSNMNAGGLF [YGR119C/NUP57]	3.26 ± 0.093	3.15 ± 0.06	3.04 ± 0.055	3.19 ± 0.081
GGQHHHRINMDKYHPGY [RPL28]	3.23 ± 0.1	3.36 ± 0.056	3.14 ± 0.1	2.99 ± 0.055
GGSSDTADKIRIHAKNF [GAL11]	1.67 ± 0.066	1.86 ± 0.061	1.42 ± 0.072	1.68 ± 0.054
GGVPTTSFGQPQSAPNQ [YOR098C/NUP1]	2.33 ± 0.071	1.99 ± 0.085	2.36 ± 0.11	2.15 ± 0.095
GHRADVGGQFSKVQFDA [REC8]	3.25 ± 0.085	3.45 ± 0.11	3.28 ± 0.059	3.23 ± 0.056
GHSQFTSHYQNYHPNAS [RPN4]	2.56 ± 0.049	2.44 ± 0.044	2.15 ± 0.09	2.22 ± 0.038

Sequence	protein stability index (doa10∆)	protein stability index (pdr5∆)	protein stability index (san1∆)	protein stability index (ubr1∆)
GIDLAYNMYDAYGNWFN [PRP8]	2.94 ± 0.049	3.08 ± 0.04	3.05 ± 0.058	3 ± 0.045
GIDPTRIYTNSFIDIME [RPO21]	2.64 ± 0.048	2.5 ± 0.045	2.77 ± 0.048	2.53 ± 0.034
GIFGMDFYVVMNRPGAR [RPL11A]	1.8 ± 0.057	1.71 ± 0.064	2.49 ± 0.058	2.24 ± 0.047
GIGSLTDLMSIVQELLD [RPC34]	3.49 ± 0.17	2.91 ± 0.16	3.23 ± 0.13	3.17 ± 0.13
GIKLALDPNLITLALSS [SRB4]	2.21 ± 0.052	2.91 ± 0.065	2.58 ± 0.055	2.63 ± 0.04
GINSPLSSVALRSDFYI [YJL039C/NUP192]	2.45 ± 0.15	2.78 ± 0.12	2.96 ± 0.14	3.07 ± 0.15
GIPPPYDKKKRVVVPQA [RPL16B]	1.83 ± 0.046	2.2 ± 0.059	1.99 ± 0.12	2.13 ± 0.058
GIPTDKGPRFRKLTSQE [PRE8]	3.14 ± 0.12	3.52 ± 0.18	3.01 ± 0.25	3.46 ± 0.25
GIQEVVHNTNSFIISSL [NUT1]	2.12 ± 0.074	2.46 ± 0.059	2.04 ± 0.087	2.54 ± 0.066
GITYRREDMPFTAEGIV [RPB2]	2.52 ± 0.096	1.86 ± 0.099	2.39 ± 0.13	2.07 ± 0.12
GIVLEKLGIESKQPNSA [RPS23A]	2.05 ± 0.071	2.11 ± 0.072	1.92 ± 0.11	2.38 ± 0.1
GKELDSLDLNNLELGGL [PGD1]	3.08 ± 0.12	3.25 ± 0.12	2.99 ± 0.085	3.24 ± 0.066
GKEVEVLMETKNTQSPQ [SNU114]	3.19 ± 0.22	3.6 ± 0.095	–	3.44 ± 0.11
GKGDNDNGLGPLKYAPH [SWI3]	2.69 ± 0.058	3.39 ± 0.12	2.85 ± 0.085	2.7 ± 0.052
GKGLQSAIDVLDPLTKD [RPN2]	2.28 ± 0.069	2.56 ± 0.079	2.44 ± 0.1	2.81 ± 0.069
GKHSQEQNSSSAKPSQI [SIR4]	2.97 ± 0.067	3.24 ± 0.072	3.02 ± 0.06	3.24 ± 0.052
GKIDEAADILCELQVET [RPN5]	3.06 ± 0.12	3.25 ± 0.15	3.1 ± 0.061	3.46 ± 0.095
GKIQENIPFWKHVGFEL [SRP72]	2.65 ± 0.053	2.59 ± 0.055	2.37 ± 0.072	2.57 ± 0.035
GKLAKPRQLHNTHWGLV [RPB2]	2.85 ± 0.082	2.84 ± 0.071	2.61 ± 0.068	2.94 ± 0.092
GKMIELISGKAGVLNGT [RET1]	2.62 ± 0.079	2.98 ± 0.087	2.52 ± 0.24	2.6 ± 0.11
GKTNIALLTVLKALSHH [BRR2]	2.19 ± 0.058	1.54 ± 0.05	2.14 ± 0.069	2 ± 0.057
GKTSFFQALGVPTKIAR [RPP0]	3.24 ± 0.1	3.29 ± 0.091	2.98 ± 0.11	3.26 ± 0.071
GLFDSFTNGVLAVTNLL [YML031W/NDC1]	2.64 ± 0.14	2.95 ± 0.22	2.75 ± 0.11	–
GLIMLNLQPASVINNYL [NUT1]	1.71 ± 0.063	1.5 ± 0.098	1.15 ± 0.27	2 ± 0.071
GLKFASFIFQYYGLVID [PRP8]	1.73 ± 0.2	1.27 ± 0.18	1.14 ± 0.27	–
GLKRSQLDEFKNKYLKD [SWP82]	3.11 ± 0.13	2.89 ± 0.21	2.89 ± 0.12	2.69 ± 0.17
